Source: IntAct's records for PubMed 32852592

B1: Mitogen-activated protein kinase 13 (Homo sapiens), O15264 (parent)
chain: MSLIRKKGFYKQDVNKTAWELPKTYVSPTHVGSGAYGSVCSAIDKRSGEKVAIKKLSRPFQSEIFAKRAYRELLLLKHMQHENVIGLLDVFTPASSLRNFYDFYLVMPFMQTDLQKIMGMEFSEEKIQYLVYQMLKGLKYIHSAGVVHRDLKPGNLAVNEDCELKILDFGLARHADAEMTGYVVTRWYRAPEVILSWMHYNQTVDIWSVGCIMAEMLTGKTLFKGKDYLDQLTQILKVTGVPGTEFVQKLNDKAAKSYIQSLPQTPRKDFTQLFPRASPQAADLLEKMLELDVDKRLTAAQALTHPFFEPFRDPEEETEAQQPFDDSLEHEKLTVDEWKQHIYKEIVNFSPIARKDSRRRSGMKL

Variants of: B1
Details: with stat3_human STAT3, P40763
Sequence of stat3_human STAT3, P40763 (P40763 whole entry): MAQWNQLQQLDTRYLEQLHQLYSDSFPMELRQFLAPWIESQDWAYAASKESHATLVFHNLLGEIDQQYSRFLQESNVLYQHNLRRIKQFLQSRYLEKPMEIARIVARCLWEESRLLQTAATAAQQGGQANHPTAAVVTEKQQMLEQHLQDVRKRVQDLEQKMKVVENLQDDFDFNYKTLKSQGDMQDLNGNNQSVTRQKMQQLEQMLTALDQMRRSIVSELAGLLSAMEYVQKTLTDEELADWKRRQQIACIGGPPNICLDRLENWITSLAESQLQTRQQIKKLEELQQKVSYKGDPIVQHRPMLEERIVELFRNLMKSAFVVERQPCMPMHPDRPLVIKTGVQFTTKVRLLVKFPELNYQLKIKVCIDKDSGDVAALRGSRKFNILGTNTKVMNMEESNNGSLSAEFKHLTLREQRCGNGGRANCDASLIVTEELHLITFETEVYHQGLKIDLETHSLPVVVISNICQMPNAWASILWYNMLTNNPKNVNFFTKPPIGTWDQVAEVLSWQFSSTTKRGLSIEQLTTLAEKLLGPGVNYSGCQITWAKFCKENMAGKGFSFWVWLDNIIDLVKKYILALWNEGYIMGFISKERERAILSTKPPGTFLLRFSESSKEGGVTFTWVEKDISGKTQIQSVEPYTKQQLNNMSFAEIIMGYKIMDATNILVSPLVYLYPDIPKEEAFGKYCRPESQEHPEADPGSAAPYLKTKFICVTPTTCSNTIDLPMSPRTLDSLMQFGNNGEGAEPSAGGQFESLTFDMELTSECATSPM

Variant	effect of a mutation on the interaction
MSLIRKKGFYKQDVNKTAWELPKTYVSPTHVGSGAYGSVCSAIDKRSGEKVAIKKLSRPFQSEIFAKRAYRELLLLKHMQHENVIGLLDVFTPASSLRNFYDFYLVMPFMQTDLQKIMGMEFSEEKIQYLVYQMLKGLKYIHSAGVVHRDLKPGNLAVNEDCELKILDFGLARHADAEMAGAVVTRWYRAPEVILSWMHYNQTVDIWSVGCIMAEMLTGKTLFKGKDYLDQLTQILKVTGVPGTEFVQKLNDKAAKSYIQSLPQTPRKDFTQLFPRASPQAADLLEKMLELDVDKRLTAAQALTHPFFEPFRDPEEETEAQQPFDDSLEHEKLTVDEWKQHIYKEIVNFSPIARKDSRRRSGMKL [T180A;Y182A]	with no effect
